Laboratory results as given in publication PMC7690626 (2020).

Key:
Assay in all cases: FACS; CXCR4+ Toledo cells
[1] = target: T22-GFP-H6-S-Cy5 nanoconjugate (T22-GFP-H6 labeled with Sulfo-Cyanine5) (horseshoe crab | , UniProt P14216, Sulfo-Cyanine 5 covalently bound through exposed external lysines (NHS-ester to amine); Poisson dye load distribution, positions not given)
[2] = target: T22-GFP-H6-ATTO nanoconjugate (T22-GFP-H6 labeled with ATTO488) (horseshoe crab | , UniProt P14216, ATTO488 covalently bound through exposed external lysines (NHS-ester to amine); Poisson dye load distribution, positions not given)
[3] = target: T22-GFP-H6 protein nanoparticle (unlabeled) (horseshoe crab | , UniProt P14216)

Kd [1]: 540 nM | Kd [2]: 250 nM | Kd [3]: 140 nM
B1: CXCR4 receptor on human Toledo diffuse large B-cell lymphoma cells (receptor)
chain: MEGISIYTSDNYTEEMGSGDYDSMKEPCFREENANFNKIFLPTIYSIIFLTGIVGNGLVILVMGYQKKLRSMTDKYRLHLSVADLLFVITLPFWAVDAVANWYFGNFLCKAVHVIYTVNLYSSVLILAFISLDRYLAIVHATNSQRPRKLLAEKVVYVGVWIPALLLTIPDFIFANVSEADDRYICDRFYPNDLWVVVFQFQHIMVGLILPGIVILSCYCIIISKLSHSKGHQKRKALKTTVILILAFFACWLPYYIGISIDSFILLEIIKQGCEFENTVHKWISITEALAFFHCCLNPILYAFLGAKFKTSAQHALTSVSRGSSLKILSKGKRGGHSSVSTESESSSFHSS
